Experimental data taken from IntAct's records for PubMed 15611062.

B1: Large T antigen (Simian virus 40), P03070 (parent)
chain: MDKVLNREESLQLMDLLGLERSAWGNIPLMRKAYLKKCKEFHPDKGGDEEKMKKMNTLYKKMEDGVKYAHQPDFGGFWDATEIPTYGTDEWEQWWNAFNEENLFCSEEMPSSDDEATADSQHSTPPKKKRKVEDPKDFPSELLSFLSHAVFSNRTLACFAIYTTKEKAALLYKKIMEKYSVTFISRHNSYNHNILFFLTPHRHRVSAINNYAQKLCTFSFLICKGVNKEYLMYSALTRDPFSVIEESLPGGLKEHDFNPEEAEETKQVSWKLVTEYAMETKCDDVLLLLGMYLEFQYSFEMCLKCIKKEQPSHYKYHEKHYANAAIFADSKNQKTICQQAVDTVLAKKRVDSLQLTREQMLTNRFNDLLDRMDIMFGSTGSADIEEWMAGVAWLHCLLPKMDSVVYDFLKCMVYNIPKKRYWLFKGPIDSGKTTLAAALLELCGGKALNVNLPLDRLNFELGVAIDQFLVVFEDVKGTGGESRDLPSGQGINNLDNLRDYLDGSVKVNLEKKHLNKRTQIFPPGIVTMNEYSVPKTLQARFVKQIDFRPKDYLKHCLERSEFLLEKRIIQSGIALLLMLIWYRPVAEFAQSIQSRIVEWKERLDKEFSLSVYQKMKFNVAMGIGVLDWLRNSDDDDEDSQENADKNEDGGEKNMEDSGHETGIDSQSQGSFQAPQSSQSVHDHNQPYHICRGFTCFKKPPTPPPEPET

Variants of: B1
Conditions: with fbw1a_human BTRC

Variant	effect of a mutation on the interaction
T701A;E705D	decreasing interaction

Variants of: B1
Conditions: with fbw1b_human FBXW11, Q9UKB1
Sequence of fbw1b_human FBXW11, Q9UKB1 (Q9UKB1 whole entry): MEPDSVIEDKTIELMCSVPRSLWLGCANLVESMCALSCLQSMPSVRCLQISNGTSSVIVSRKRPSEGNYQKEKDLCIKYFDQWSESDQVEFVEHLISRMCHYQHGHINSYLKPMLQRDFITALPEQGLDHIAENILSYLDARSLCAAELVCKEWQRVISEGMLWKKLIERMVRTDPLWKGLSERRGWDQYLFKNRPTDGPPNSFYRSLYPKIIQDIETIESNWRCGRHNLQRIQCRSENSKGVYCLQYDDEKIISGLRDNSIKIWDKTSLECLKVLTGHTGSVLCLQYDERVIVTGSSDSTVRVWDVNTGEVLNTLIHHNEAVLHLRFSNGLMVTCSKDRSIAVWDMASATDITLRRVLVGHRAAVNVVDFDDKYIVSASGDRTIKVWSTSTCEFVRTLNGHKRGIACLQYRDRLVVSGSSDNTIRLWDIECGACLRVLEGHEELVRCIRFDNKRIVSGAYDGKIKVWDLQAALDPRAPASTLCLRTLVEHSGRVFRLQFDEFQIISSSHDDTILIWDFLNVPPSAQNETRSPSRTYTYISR

Variant	effect of a mutation on the interaction
T701A;E705A	decreasing interaction

Variants of: B1
Conditions: with fbxw7_human FBXW7, Q969H0
Sequence of fbxw7_human FBXW7, Q969H0 (Q969H0 whole entry): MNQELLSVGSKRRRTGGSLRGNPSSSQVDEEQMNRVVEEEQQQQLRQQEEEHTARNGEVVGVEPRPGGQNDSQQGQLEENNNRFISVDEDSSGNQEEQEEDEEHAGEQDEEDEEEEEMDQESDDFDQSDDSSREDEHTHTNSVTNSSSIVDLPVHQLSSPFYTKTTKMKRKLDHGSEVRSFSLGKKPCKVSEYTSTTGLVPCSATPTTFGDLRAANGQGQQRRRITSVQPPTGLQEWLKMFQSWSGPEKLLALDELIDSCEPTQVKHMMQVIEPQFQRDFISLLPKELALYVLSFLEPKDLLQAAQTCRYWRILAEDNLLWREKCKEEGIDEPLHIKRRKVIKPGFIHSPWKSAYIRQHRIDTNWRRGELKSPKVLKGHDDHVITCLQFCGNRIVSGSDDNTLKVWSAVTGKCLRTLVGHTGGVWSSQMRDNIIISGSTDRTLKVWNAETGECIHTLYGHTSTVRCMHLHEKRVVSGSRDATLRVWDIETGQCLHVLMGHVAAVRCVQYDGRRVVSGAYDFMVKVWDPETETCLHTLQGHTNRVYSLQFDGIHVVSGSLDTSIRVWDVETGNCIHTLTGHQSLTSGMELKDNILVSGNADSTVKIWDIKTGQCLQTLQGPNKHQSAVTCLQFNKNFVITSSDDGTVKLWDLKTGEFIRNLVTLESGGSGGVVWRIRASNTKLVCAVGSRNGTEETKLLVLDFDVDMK

Variant	effect of a mutation on the interaction
T701A	decreasing interaction
